# Results: IntAct's records for PubMed 21850687
# Assays:
# prdx3_human PRDX3 [1] = target: prdx3_human PRDX3 (UniProt P30048)
# prdx3_human PRDX3 [2] = target: prdx3_human PRDX3 (UniProt P30048); remark: listed apart in the source
# Sequence of UniProt P30048 (P30048 whole entry): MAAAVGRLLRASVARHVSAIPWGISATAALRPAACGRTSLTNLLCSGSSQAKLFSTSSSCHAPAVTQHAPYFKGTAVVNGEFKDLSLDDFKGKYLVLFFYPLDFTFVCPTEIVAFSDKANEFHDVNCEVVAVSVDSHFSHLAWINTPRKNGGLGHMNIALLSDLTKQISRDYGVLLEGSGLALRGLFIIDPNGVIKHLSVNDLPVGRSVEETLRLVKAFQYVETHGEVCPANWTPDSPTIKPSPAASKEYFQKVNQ
Substance,effect of a mutation on the interaction (prdx3_human PRDX3 [1]),effect of a mutation on the interaction (prdx3_human PRDX3 [2])
"Leucine-rich repeat serine/threonine-protein kinase 2 (Homo sapiens), Q5S007 G2019S",increasing interaction,–
"Leucine-rich repeat serine/threonine-protein kinase 2 (Homo sapiens), Q5S007 G2019V;I2020F",–,disrupting interaction
